This is an account of results in the DeepSol protein solubility set.

The nature of this series: soluble on expression in E. coli; label from the status in PepcDB or PDB records.
On to “MGSDKIHHHHHHMIKLILSAPVPAMAVAFEHSFQNTENVEIIPGPFETIPEFDCMVSAANSFGLMDGGVDAAITAYFGPQLQERVQQHILREYLGEQPVGTAFVIETGNSKYPWLVHAPTMRVPLIIDGTDAVYNATRAALLAIFQHNKSAGEDRKIKSVVFPAMGAGCGQVSPGSVARQMKLAWDGFINCTTEINWQYASARQNAVFSTTAYCPSKALCPNARTEYIGFGDYRTYCKKSGNTCISPRHQVDDIYIGAHSHAVFLSPNSHGKHLKPEYLSGVKNDV”, for which the “soluble on expression in E. coli” value is on record as “not soluble”.

For “MVMAAVIHKKGGPDNFVWEEVKVGSPGPGQVRLRNTAIGVNFLDTYHRAGIPHPLVVGEPPIVVGFEAAAVVEEVGPGVTDFTVGERVCTCLPPLGAYSQERLYPAEKLIKVPKDLDLDDVHLAGLMLKGMTAQYLLHQTHKVKPGDYVLIHAAAGGMGHIMVPWARHLGATVIGTVSTEEKAETARKLGCHHTINYSTQDFAEVVREITGGKGVDVVYDSIGKDTLQKSLDCLRPRGMCAAYGHASGVADPIRVVEDLGVRGSLFITRPALWHYMSNRSEIDEGSKCLFDAVKAGVLHSSVAKTFPLREAAAAHKYMGGRQTIGSIVLLPQA”, the “soluble on expression in E. coli” value is “soluble”.

With “MRVFVVGGTGFVGQEVVRLLLARGHTPLVLARRSRPLPEGAVLVEGDIAREVPDLEGVEAAIYLAGIIRERGQTFRAVHVEGVRNLLRAMERAGVGRLLHMSALGARPEAPSRYHRTKAEGEALVRQSGLSHAIFRPSLIFGPGDEFFGRVLRGLVCAPLPFVPLIGDGGFPFRPVYVGDVAEAFVGALERGLEGTYDLVGPKEYSFRELLQLVMEVLGRRKPFLSLPLWLMDRLVPLLSPLPISPLTLDQYLMLKEGNTAPFPEALKELLPAPQALEEVLPRYLRC”, the “soluble on expression in E. coli” value is given as “soluble”.

With “EAVHRLDLILCNKTAYQEVFKPENISLRNKLRELCVKLMFLHPVDYGRKAEELLWRKVYYEVIQLIKTNKKHIHSRSTLECAYRTHLVAGIGFYQHLLLYIQSHYQLELQCCIDWTHVTDPLIGCKKPVSASGKEMDWAQMACHRCLVYLGDLSRYQNELAGVDTELLAERFYYQALSVAPQIGMPFNQLGTLAGSKYYNVEAMYCYLRCIQSEVSFEGAYGNLKRLYDKAAKMYHQLKKCETRKLSPGKKRCKDIKRLLVNFMYLQSLLQPKSSSVDSELTSLCQSVLEDFNLCLFYLPSSPNLSLASEDEEEYESGYAFLPDLLIFQMVIICLMCVHSLERAGSKQYSAAIAFTLALFSHLVNHVNIRLQAELEEGENPVPAFQSDGTDEPESKEPVEKEEEPDPEPPPVTPQVGEGRKSRKFSRLSCLRRRRHPPKVGDDSDLSEGFESDSSHDSARASEGSDSGSDKSLEGGGTAFDAETDSEMNSQESRSDLEDMEEEEGTRSPTLEPPRGRSEAPDSLNGPLGPSEASIASNLQAMSTQMFQTKRCFRLAPTFSNLLLQPTTNPHTSASHRPCVNGDVDKPSEPASEEGSESEGSESSGRSCRNERSIQEKLQVLMAEGLLPAVKVFLDWLRTNPDLIIVCAQSSQSLWNRLSVLLNLLPAAGELQESGLALCPEVQDLLEGCELPDLPSSLLLPEDMALRNLPPLRAAHRRFNFDTDRPLLSTLEESVVRICCIRSFGHFIARLQGSILQFNPEVGIFVSIAQSEQESLLQQAQAQFRMAQEEARRNRLMRDMAQLRLQLEVSQLEGSLQQPKAQSAMSPYLVPDTQALCHHLPVIRQLATSGRFIVIIPRTVIDGLDLLKKEHPGARDGIRYLEAEFKKGNRYIRCQKEVGKSFERHKLKRQDADAWTLYKILDSCKQLTLAQGAGEEDPSGMVTIITGLPLDNPSVLSGPMQAALQAAAHASVDIKNVLDFYKQWKEIG”, the “soluble on expression in E. coli” value is reported as “soluble”.

“MVLARREALDPRYQYDAALAAAKKGEAAIAVPAGVMIAGYWPIRSEIDPRPLLSAFRAKGARLCLPVVLDAETIAFREFLPDAELVPTGFGTMGPDEHAPLVDPAIMLMPLAGFDRLGHRLGYGAGHYDRALARFAERGLQPLLIGMAFDCQEVDYVPNEPHDIALHQILTESGLRSRAMDLEHHHHHH”: the “soluble on expression in E. coli” value was “not soluble”.

Consider “GLDTGALDQQQNNNGRESIRTVNVSVNNAVTKIVSNMSPAVVGVVNIQKSDIWGESGEAGSGSGVIYKKNDHSAYVVTNHHVIEGASQIEISLKDGSRVSADLVGSDQLMDLAVLRVKSDKIKAVADFGNSDKVKSGEPVIAIGNPLGLEFAGSVTQGVISGTERAIPVDSNGDGQPDWNAEVLQTDAAINPGNSGGALLNMDGKVIGINSMKIAESAVEGIGLSIPSKLVIPVIEDLERYGKVKRPFLGIEMKSLSDIASYHWDETLKLPKNVTNGAVVMGVDAFSPAGKAGLKELDVITEFDGYKVNDIVDLRKRLYQKKVGDRVKVKFYRGGKEKSVDIKLSSA”, for which the “soluble on expression in E. coli” value was “not soluble”.

Take “GAMSSPAGSPTEQAPPAKGSVKVLRTVATGLNSPWGLAPLPGGDLLVSSRDEATITRVDAKTGRKTELGEVPGVSPSGEGGLLGIALSPDYASDHMVYAYFTSASDNRIVRMLYDEKKPSGEQLGAPDTVFRGIPKGVIHNGGRIAFGPDKMLYAGTGESGDTGLSQDRKSLGGKILRMTPDGEPAPGNPFPGSPVYSYGHRNVQGLAWDDKQRLFASEFGQDTWDELNAIKPGDNYGWPEAEGKGGGSGFHDPVAQWSTDEASPSGIAYAEGSVWMAGLRGERLWRIPLKGTAAAADPQAFLEGEYGRLRTVAPAGGDKLWLVTSNTDGRGDAKGGDDRILELEVE”: the “soluble on expression in E. coli” value is recorded as “soluble”.

As to “MGSDKIHHHHHHMMPQTSLHQHVMNWAISVPGDKTLKRDIFNNIWITASQRYEYQHLTFMAQGIVELLNTEIGGVDVSIPINLFLQSTEATKYDAEMLDFAQRIVTVKDRQHIALLSENILQKMPYQPDSTSVHTTATQAFQAGQGVCQDHAHVLIAMCRALQLPARYVSGYLFDQNSPHLASHAWAEVFLDNQWYCFDVSNQLFTPKHHIYLAVGRDYLDVAPIRGVREKGGTENMMSVVQVLAC”, the “soluble on expression in E. coli” value was “not soluble”.

As to “MPDTSFSNPGLFTPLQLGSLSLPNRVIMAPLTRSRTPDSVPGRLQQIYYGQRASAGLIISEATNISPTARGYVYTPGIWTDAQEAGWKGVVEAVHAKGGRIALQLWHVGRVSHELVQPDGQQPVAPSALKAEGAECFVEFEDGTAGLHPTSTPRALETDEIPGIVEDYRQAAQRAKRAGFDMVEVHAANACLPNQFLATGTNRRTDQYGGSIENRARFPLEVVDAVAEVFGPERVGIRLTPFLELFGLTDDEPEAMAFYLAGELDRRGLAYLHFNEPDWIGGDITYPEGFREQMRQRFKGGLIYCGNYDAGRAQARLDDNTADAVAFGRPFIANPDLPERFRLGAALNEPDPSTFYGGAEVGYTDYPFLDNGHDRLG”, the “soluble on expression in E. coli” value is listed as “soluble”.

“GPGSMVKKMGRDEARAGVERRPPPMLKAERQAAFRRKVRNELLLSGRERKDAERQRMEEFRRLCKAEGIQSKRLQEYDAMREEAANKLGEKLNHIEYDQSLTNAEKRKRRYNLKRNYAGQTVMDLVQKQEKHHNALTKVEKIRKKRQEEIEAARVAKRERDEMKVKRIKERMAQNALYAQRTRKGQPVMSGRVEALLNKIQRNQQQ”: the “soluble on expression in E. coli” value was “soluble”.

With “MRGSHHHHHHTDPALRAPKSVIIPAGSSAPLAPFVPGTLADGVVYVSGTLAFDQHNNVLFADDPKAQTRHVLETIRKVIETAGGTMADVTFNSIFITDWKNYAAINEIYAEFFPGDKPARFCIQCGLVKPDALVEIATIAHIAKGLCGR”, the “soluble on expression in E. coli” value is given as “soluble”.

Take “GEDKKGGTKPSNEAALTKTENLDFRLSFNKIKVTTDQNHFSGGTSIEQLKQWFGDPNKSEQRNAGNITLDSYTWVKDGAVINAQLYKNSTVARSISNFSFSREAKIGKEDYDELKIGESYKKIVEKLGEPDVLSQSMSSDKEEMQTVWSSGIKTKSSSATIELYFENGLLKNKTQKDLE”: the “soluble on expression in E. coli” value is “soluble”.

Take “SNQEKLQRTMIHFNNPEVQAFLAVNTFTITGHGETKQLTEMLRSVLNQLAAVSLTSLRRLAEALPKQSVDGKAPLATGEDDDDDEVPGIMENFDEASKNEAN”: the “soluble on expression in E. coli” value was “soluble”.

For “MGSSHHHHHHGGTGENLYFQGGSGTNVPLTQRITAFNNYVGNASNRDRVMSVVQFGAMALAAPAAAAGCPELSAHLSTILHGAAHYRTVTRFSQWLVVAPALTPSGIKSAIASHPNLLVGICKTISTAFFTVFLIGEELVLASKCNMLDPVLGKRFNRIRFVFLFWSNIARLVMSYLLLKSSKYDAVKDNQNEEKAKDHRRKVLGVADGVLQSMFCYTLLKSSAPAGPKYLSAALRSGKAVDIITSLAPPLLVVPSTPQGMLGLAASVPGFMMSVL”, the “soluble on expression in E. coli” value is listed as “not soluble”.
